Experiments:
[1] = tested on: 5' NS-TALEN (artificial (TALE-FokI)); assay: cleavage_in_vitro; details: pair with 3' HT-TALEN; 747 bp PCR template, 30 C
[2] = tested on: 5' NS-TALEN (in cells) (artificial (TALE-FokI)); assay: cell_activity; details: NS pair in HeLa-tat-III/LTR/d1EGFP cells; 2 of 23 clones mutated

TCTCTGGTTAGACCAGATCT (double strand) [5' TALE binding target, HIV-1 LTR TAR]
activity [1]: 42 % cleavage | activity [2]: 30 % GFP loss
